biological target: C-CFTR 1411-1480 (Homo sapiens, UniProt P13569); experiment: SPR
Sequence (P13569 1411-1480): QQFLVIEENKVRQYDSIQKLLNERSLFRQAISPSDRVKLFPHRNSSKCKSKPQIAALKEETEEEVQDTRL

Row | Binder | Kd
1 | NHERF1 PDZ2-CT E353A 150-358 (protein) LRPRLCTMKKGPSGYGFNLHSDKSKPGQFIRSVDPDSPAEASGLRAQDRIVEVNGVCMEGKQHGDVVSAIRAGGDETKLLVVDRETDEFFKKCRVIPSQEHLNGPLPVPFTNGEIQKENSREALAEAALESPRPALVRSASSDTSEELNSQDSPPKQDSTAPSSTSSSDPILDFNISLAMAKERAHQKRSSKRAPQMDWSKKNALFSNL | 2500 nM
2 | NHERF1 PDZ2-CT 150-358 (protein) LRPRLCTMKKGPSGYGFNLHSDKSKPGQFIRSVDPDSPAEASGLRAQDRIVEVNGVCMEGKQHGDVVSAIRAGGDETKLLVVDRETDEFFKKCRVIPSQEHLNGPLPVPFTNGEIQKENSREALAEAALESPRPALVRSASSDTSEELNSQDSPPKQDSTAPSSTSSSDPILDFNISLAMAKERAHQKRSSKRAPQMDWSKKNELFSNL | 2000 nM
3 | NHERF1 PDZ2-CT E353P 150-358 (protein) LRPRLCTMKKGPSGYGFNLHSDKSKPGQFIRSVDPDSPAEASGLRAQDRIVEVNGVCMEGKQHGDVVSAIRAGGDETKLLVVDRETDEFFKKCRVIPSQEHLNGPLPVPFTNGEIQKENSREALAEAALESPRPALVRSASSDTSEELNSQDSPPKQDSTAPSSTSSSDPILDFNISLAMAKERAHQKRSSKRAPQMDWSKKNPLFSNL | 480 nM
4 | NHERF1 PDZ2-CT L358D 150-358 (protein) LRPRLCTMKKGPSGYGFNLHSDKSKPGQFIRSVDPDSPAEASGLRAQDRIVEVNGVCMEGKQHGDVVSAIRAGGDETKLLVVDRETDEFFKKCRVIPSQEHLNGPLPVPFTNGEIQKENSREALAEAALESPRPALVRSASSDTSEELNSQDSPPKQDSTAPSSTSSSDPILDFNISLAMAKERAHQKRSSKRAPQMDWSKKNELFSND | 1600 nM
